The values that follow come from patent US20040077531A1, “Use of galanin-like peptide” (priority 2001, published 2004).

In assay [1] the target is T1, rat-type galanin (SEQ ID NO: 61) (Rattus norvegicus, UniProt P10683).
T1 sequence (P10683 33-61 limits assumed): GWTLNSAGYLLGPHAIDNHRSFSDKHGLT
Briefly: Competitive EIA of monoclonal antibodies against rat galanin. The format is binding. As to conditions: B/B0 in the presence of 100 nM immunogen; HRP-labeled SEQ ID NO: 44.

Assay [2] concerns the target T2, pig-type ligand peptide (1-60) (SEQ ID NO: 31) (Sus scrofa, UniProt Q9TT95).
T2 construct: made in house
T2 sequence (Q9TT95 23-82): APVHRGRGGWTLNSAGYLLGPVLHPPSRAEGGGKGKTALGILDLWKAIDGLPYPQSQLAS
Briefly: Competitive EIA of monoclonal antibodies against pig-type ligand peptide. The format is binding. Conditions: B/B0 in the presence of 100 nM immunogen; HRP-labeled SEQ ID NO: 44.

B1: 2 (protein)
chain: MNGSGSQGAENTSQEGGSGGWQPEAVLVPLFFALIFLVGTVGNALVLAVLLRGGQAVSTTNLFILNLGVADLCFILCCVPFQATIYTLDDWVFGSLLCKAVHFLIFLTMHASSFTLAAVSLDRYLAIRYPLHSRELRTPRNALAAIGLIWGLALLFSGPYLSYYRQSQLANLTVCHPAWSAPRRRAMDLCTFVFSYLLPVLVLSLTYARTLRYLWRTVDPVTAGSGSQRAKRKVTRMIIIVAVLFCLCWMPHHALILCVWFGRFPLTRATYALRILSHLVSYANSCVNPIVYALVSKHFRKGFRKICAGLLRPAPRRASGRVSILAPGNHSGSMLEQESTDLTQVSEAAGPLVPPPALPNCTASSRTLDPAC
modifications: Rat
Consider B1, for which the “Reactivity Rat Galanin (SEQ ID NO: 61)” value in assay [1] is listed as “− (0.80 ≦ (B/B0))”. In addition, the “Reactivity Pig Ligand (SEQ ID NO: 31)” value in assay [2] is given as “+ ((B/B0) < 0.50)”.

B2: 5 (protein)
chain: MNGSGSQGAENTSQEGGSGGWQPEAVLVPLFFALIFLVGTVGNALVLAVLLRGGQAVSTTNLFILNLGVADLCFILCCVPFQATIYTLDDWVFGSLLCKAVHFLIFLTMHASSFTLAAVSLDRYLAIRYPLHSRELRTPRNALAAIGLIWGLALLFSGPYLSYYRQSQLANLTVCHPAWSAPRRRAMDLCTFVFSYLLPVLVLSLTYARTLRYLWRTVDPVTAGSGSQRAKRKVTRMIIIVAVLFCLCWMPHHALILCVWFGRFPLTRATYALRILSHLVSYANSCVNPIVYALVSKHFRKGFRKICAGLLRPAPRRASGRVSILAPGNHSGSMLEQESTDLTQVSEAAGPLVPPPALPNCTASSRTLDPAC
modifications: Rat
B2: the “Reactivity Rat Galanin (SEQ ID NO: 61)” value in assay [1] is recorded as “− (0.80 ≦ (B/B0))”. Further, the “Reactivity Pig Ligand (SEQ ID NO: 31)” value in assay [2] is reported as “± (0.50 ≦ (B/B0) < 0.80)”.

B3: 1 (protein)
chain: MELAPVNLSEGNGSDPEPPAEPRPLFGIGVENFITLVVFGLIFAMGVLGNSLVITVLARSKPGKPRSTTNLFILNLSIADLAYLLFCIPFQATVYALPTWVLGAFICKFIHYFFTVSMLVSIFTLAAMSVDRYVAIVHSRRSSSLRVSRNALLGVGFIWALSIAMASPVAYYQRLFHRDSNQTFCWEHWPNQLHKKAYVVCTFVFGYLLPLLLICFCYAKVLNHLHKKLKNMSKKSEASKKKTAQTVLVVVVVFGISWLPHHVIHLWAEFGAFPLTPASFFFRITAHCLAYSNSSVNPIIYAFLSENFRKAYKQVFKCRVCNESPHGDAKEKNRIDTPPSTNCTHV
modifications: Rat
B3: in assay [1], the “Reactivity Rat Galanin (SEQ ID NO: 61)” value is on record as “− (0.80 ≦ (B/B0))”. Also, the “Reactivity Pig Ligand (SEQ ID NO: 31)” value in assay [2] is “− (0.80 ≦ (B/B0))”.

B4: 4 (protein)
chain: MELAPVNLSEGNGSDPEPPAEPRPLFGIGVENFITLVVFGLIFAMGVLGNSLVITVLARSKPGKPRSTTNLFILNLSIADLAYLLFCIPFQATVYALPTWVLGAFICKFIHYFFTVSMLVSIFTLAAMSVDRYVAIVHSRRSSSLRVSRNALLGVGFIWALSIAMASPVAYYQRLFHRDSNQTFCWEHWPNQLHKKAYVVCTFVFGYLLPLLLICFCYAKVLNHLHKKLKNMSKKSEASKKKTAQTVLVVVVVFGISWLPHHVIHLWAEFGAFPLTPASFFFRITAHCLAYSNSSVNPIIYAFLSENFRKAYKQVFKCRVCNESPHGDAKEKNRIDTPPSTNCTHV
modifications: Rat
As for B4, in assay [1], the “Reactivity Rat Galanin (SEQ ID NO: 61)” value is “− (0.80 ≦ (B/B0))”. Moreover, the “Reactivity Pig Ligand (SEQ ID NO: 31)” value in assay [2] is on record as “+ ((B/B0) < 0.50)”.

B5: 3 (protein)
chain: MADIQNISLDSPGSVGAVAVPVIFALIFLLGMVGNGLVLAVLLQPGPSAWQEPSSTTDLFILNLAVADLCFILCCVPFQAAIYTLDAWLFGAFVCKTVHLLIYLTMYASSFTLAAVSLDRYLAVRHPLRSRALRTPRNARAAVGLVWLLAALFSAPYLSYYGTVRYGALELCVPAWEDARRRALDVATFAAGYLLPVAVVSLAYGRTLCFLWAAVGPAGAAAAEARRRATGRAGRAMLAVAALYALCWGPHHALILCFWYGRFAFSPATYACRLASHCLAYANSCLNPLVYSLASRHFRARFRRLWPCGRRRHRHHHRAHRALRRVQPASSGPAGYPGDARPRGWSMEPRGDALRGGGETRLTLSPRGPQ
modifications: Rat
B5: the “Reactivity Rat Galanin (SEQ ID NO: 61)” value in assay [1] is given as “− (0.80 ≦ (B/B0))”. Further, the “Reactivity Pig Ligand (SEQ ID NO: 31)” value in assay [2] is on record as “± (0.50 ≦ (B/B0) < 0.80)”.

B6: 6 (protein)
chain: MADIQNISLDSPGSVGAVAVPVIFALIFLLGMVGNGLVLAVLLQPGPSAWQEPSSTTDLFILNLAVADLCFILCCVPFQAAIYTLDAWLFGAFVCKTVHLLIYLTMYASSFTLAAVSLDRYLAVRHPLRSRALRTPRNARAAVGLVWLLAALFSAPYLSYYGTVRYGALELCVPAWEDARRRALDVATFAAGYLLPVAVVSLAYGRTLCFLWAAVGPAGAAAAEARRRATGRAGRAMLAVAALYALCWGPHHALILCFWYGRFAFSPATYACRLASHCLAYANSCLNPLVYSLASRHFRARFRRLWPCGRRRHRHHHRAHRALRRVQPASSGPAGYPGDARPRGWSMEPRGDALRGGGETRLTLSPRGPQ
modifications: Rat
Regarding B6, in assay [1], the “Reactivity Rat Galanin (SEQ ID NO: 61)” value is on record as “− (0.80 ≦ (B/B0))”. Moreover, in assay [2], the “Reactivity Pig Ligand (SEQ ID NO: 31)” value was “+ ((B/B0) < 0.50)”.

B7: 8 (protein)
chain: MPRGCALLLASLLLASALSATLGLGSPVKEKRGWTLNSAGYLLGPHAIDNHRSFHDKYGLAGKRELEPEDEARPGGFDRLQSEDKAIRTIMEFLAFLHLKEAGALGRLPGLPSAASSEDAGQS
modifications: Porcine
Consider B7, for which the “Reactivity Rat Galanin (SEQ ID NO: 61)” value in assay [1] is listed as “− (0.80 ≦ (B/B0))”. Further, in assay [2], the “Reactivity Pig Ligand (SEQ ID NO: 31)” value is “− (0.80 ≦ (B/B0))”.
